Sequences and labels used below:
B1: scFv; the commonest letter at each place (parent)
chain 1: EVKLDETGGGLVQPGRPMKLSCVASGFTFSDYWMNWVRQSPEKGLEWVAQIRNKPYNYETYYSDSVKGRFTISRDDSKSSVYLQMNNLRVEDMGIYYCTGSYYGMDYWGQGTSVTVS
chain 2: DVVMTQTPLSLPVSLGDQASISCRSSQSLVHSNGNTYLRWYLQKPGQSPKVLIYKVSNRFSGVPDRFSGSGSGTDFTLKISRVEAEDLGVYFCSQSTHVPWTFGGGTKLEIK

The data set “fluorescein” covers variants of B1. Nature of the data set: Kd (Tite-Seq). The following applies: with fluorescein; format: scFv 4-4-20, heavy + light.
In data set [1] the parent is B1. The experiment in a line: yeast surface expression (ratio to wild type); higher = more expressed. To be noted: format: scFv 4-4-20, heavy + light.

Some results are limits rather than exact numbers.

What is called Kd is the constant that tells how readily two partners part at equilibrium.

Consider chain 1 Y32L N35F, for which the Kd in the data set with fluorescein is at least 10 µM. The yeast surface expression in data set [1] worked out at 0.363.
The corresponding values for chain 1 Y32D W33E are at least 10 µM and 0.525.
In the case of chain 1 Y32D W33V, the Kd in the data set with fluorescein was at least 10 µM. The yeast surface expression in data set [1] came to 0.594.
With chain 1 Y32V V37I, in the data set with fluorescein, the Kd is at least 10 µM. Further, the yeast surface expression in data set [1] was 1.03.
Take chain 1 Y32V V37K: the Kd with fluorescein was 7.72 µM. In data set [1], the yeast surface expression was 0.425.
Taken in the same sequence, the figures for chain 1 Y32V V37L were at least 10 µM and 0.677.
Turning to chain 1 Y32S N35H, the Kd with fluorescein is at least 10 µM. For the same variant, in data set [1], the yeast surface expression was 0.89.
As to chain 1 Y32Q M34I, the Kd in the data set with fluorescein was at least 10 µM. The yeast surface expression in data set [1] was determined as 0.765.
chain 1 Y32I M34S: the Kd with fluorescein is at least 10 µM. Also, in data set [1], the yeast surface expression was 0.65.
chain 1 Y32I M34A: the Kd with fluorescein was at least 10 µM. Also, in data set [1], the yeast surface expression was determined as 0.821.
As to chain 1 Y32I M34F, in the data set with fluorescein, the Kd came to 5.66 µM. The yeast surface expression in data set [1] turned out to be 0.871.
Consider chain 1 Y32H V37Q, for which the Kd in the data set with fluorescein was at least 10 µM. Besides, in data set [1], the yeast surface expression is 0.372.
As to chain 1 Y32H V37T, the Kd with fluorescein was at least 10 µM. Further, the yeast surface expression in data set [1] is 0.874.
Consider chain 1 Y102A W108P, for which the Kd with fluorescein was determined as 0.000504 µM. For the same variant, the yeast surface expression in data set [1] is 0.525.
For the variant chain 1 Y32A W33C, the Kd with fluorescein was at least 10 µM. Besides, the yeast surface expression in data set [1] stood at 0.924.
Taken in the same sequence, the figures for chain 1 Y32F W33Q were at least 10 µM and 1.23.
As to chain 1 Y32F W33Y, in the data set with fluorescein, the Kd is at least 10 µM. Further, the yeast surface expression in data set [1] was found to be 0.757.
Taken in the same sequence, the figures for chain 1 W108M G109E were 0.0944 µM and 0.408.
Taken in the same sequence, the figures for chain 1 Y102E Y103I were at least 10 µM and 0.862.
chain 1 Y102E Y103A: the Kd with fluorescein was found to be 5.1 µM. In addition, the yeast surface expression in data set [1] was 0.993.
Turning to chain 1 Y32T V37G, the Kd in the data set with fluorescein was at least 10 µM. Also, the yeast surface expression in data set [1] is 1.64.
In the case of chain 1 Y32T V37H, in the data set with fluorescein, the Kd was at least 10 µM. Further, the yeast surface expression in data set [1] is 0.624.
Turning to chain 1 Y32T V37E, the Kd with fluorescein was at least 10 µM. The yeast surface expression in data set [1] was 0.222.
Taken in the same sequence, the figures for chain 1 Y32T V37A were at least 10 µM and 0.65.
As to chain 1 Y102D Y103L G109P, the equilibrium dissociation constant (Kd) with fluorescein was at least 10 µM. Moreover, the yeast surface expression in data set [1] was 0.465.
For the variant chain 1 Y32V M34D, the Kd with fluorescein is at least 10 µM. Also, in data set [1], the yeast surface expression is 0.218.
Taken in the same sequence, the figures for chain 1 Y32V M34Q were at least 10 µM and 0.849.
As for chain 1 Y32W W36Q, the Kd with fluorescein was at least 10 µM. The yeast surface expression in data set [1] is 0.936.
Taken in the same sequence, the figures for chain 1 Y32W W36A were at least 10 µM and 0.204.
Take chain 1 Y102A: the Kd with fluorescein amounted to 0.00162 µM. Further, the yeast surface expression in data set [1] amounted to 1.17.
Consider chain 1 Y102F, for which the Kd in the data set with fluorescein is 0.00309 µM. Further, the yeast surface expression in data set [1] came out at 0.776.
Regarding chain 1 Y102D, the Kd with fluorescein is at least 10 µM. The yeast surface expression in data set [1] was 1.16.
Take chain 1 Y102C: in the data set with fluorescein, the Kd amounted to 0.00334 µM. Also, the yeast surface expression in data set [1] was determined as 0.924.
In the case of chain 1 Y102E, the Kd in the data set with fluorescein is at least 10 µM. In addition, the yeast surface expression in data set [1] is 0.889.
Regarding chain 1 Y32G N35V, the Kd with fluorescein is at least 10 µM. For the same variant, the yeast surface expression in data set [1] turned out to be 0.513.
Turning to chain 1 Y32A W36N, the Kd with fluorescein is at least 10 µM. Further, the yeast surface expression in data set [1] is 1.17.
The corresponding values for chain 1 Y32F V37C are 0.00142 µM and 0.914.
In the case of chain 1 Y32F V37I, the Kd in the data set with fluorescein is 0.0125 µM. Besides, in data set [1], the yeast surface expression amounted to 0.835.
For the variant chain 1 Y32T N35P, the Kd in the data set with fluorescein is at least 10 µM. Also, in data set [1], the yeast surface expression was 0.612.
Turning to chain 1 Y32S M34K V37D, in the data set with fluorescein, the Kd is at least 10 µM. The yeast surface expression in data set [1] was determined as 0.882.
For chain 1 Y32S M34S V37M, the dissociation constant (Kd) in the data set with fluorescein was at least 10 µM. Besides, the yeast surface expression in data set [1] turned out to be 0.65.
The corresponding values for chain 1 Y32A M34V are 0.0434 µM and 0.941.
Consider chain 1 Y32A M34S, for which the Kd with fluorescein was at least 10 µM. The yeast surface expression in data set [1] is 0.769.
The corresponding values for chain 1 Y32P W36K are at least 10 µM and 0.563.
On to chain 1 Y32P W36C, for which the Kd with fluorescein is at least 10 µM. The yeast surface expression in data set [1] stood at 0.649.
As to chain 1 Y102D M105I, the Kd with fluorescein is at least 10 µM. For the same variant, the yeast surface expression in data set [1] amounted to 1.08.
In the case of chain 1 Y32L M34A, the Kd in the data set with fluorescein was at least 10 µM. Further, in data set [1], the yeast surface expression was found to be 0.634.
As to chain 1 Y32H W36F, the Kd with fluorescein came out at 0.676 µM. The yeast surface expression in data set [1] stood at 0.839.
In the case of chain 1 Y102F M105C W108T, the Kd with fluorescein was at least 10 µM. The yeast surface expression in data set [1] came to 0.419.
Turning to chain 1 Y32C W36R, the Kd with fluorescein is at least 10 µM. For the same variant, the yeast surface expression in data set [1] is 0.506.
For chain 1 Y32P M34N, in the data set with fluorescein, the Kd was at least 10 µM. In addition, the yeast surface expression in data set [1] was found to be 0.503.
Taken in the same sequence, the figures for chain 1 W108L G109R were at least 10 µM and 0.296.
The corresponding values for chain 1 Y32C N35M are at least 10 µM and 0.536.
For chain 1 Y102E Y107A, the Kd with fluorescein was at least 10 µM. In addition, the yeast surface expression in data set [1] worked out at 0.904.
Regarding chain 1 Y32P V37G, the Kd with fluorescein is at least 10 µM. In data set [1], the yeast surface expression stood at 2.54.
On to chain 1 Y32P V37Y, for which the Kd with fluorescein was at least 10 µM. Besides, the yeast surface expression in data set [1] was 0.716.
Take chain 1 Y32E M34I: in the data set with fluorescein, the Kd is at least 10 µM. Further, the yeast surface expression in data set [1] was found to be 0.733.
As for chain 1 Y32M M34Q, the Kd in the data set with fluorescein is at least 10 µM. In addition, in data set [1], the yeast surface expression was 0.437.

The record behind these values is the FLAb antibody collection (doi:10.7554/elife.23156).
